# Data from article PMC9268357 (Science (New York, N.y.), 2021).
# B1: S2P6 monoclonal antibody (antibody, V domains shown)
# VH: EVQLVQSGAEVKKPGASVKVSCKASGYTFTSQYMHWVRQAPGQGLEWIGIINPSGVHTSYAQKFQGRVTLTRDTSTSTLYMELSSLRSEDTAVYYCARGSPKGAFDYWGQGTLVTVSS
# VL: not shown
# notes: also called S2P6 mAb; S2P6 IgG; copies: 2 + 2
# B2: S2P6 Fab fragment (Fab, V domains shown)
# VH: EVQLVQSGAEVKKPGASVKVSCKASGYTFTSQYMHWVRQAPGQGLEWIGIINPSGVHTSYAQKFQGRVTLTRDTSTSTLYMELSSLRSEDTAVYYCARGSPKGAFDYWGQGTLVTVSS
# VL: not shown
# Experiments:
# [1] = biological target: SARS-CoV-2 or SARS-CoV stem helix peptide (SARS-CoV-2; region stated to be …, biotin); experiment: BLI; conditions: both partners purified
# [2] = biological target: prefusion-stabilized OC43 S ectodomain trimer (Human coronavirus OC43, isolate not …, UniProt P36334, stabilised); experiment: cell-based or functional assay
# [3] = biological target: T1, prefusion-stabilized HKU1 S ectodomain trimer (Human coronavirus HKU1, isolate not …, UniProt Q5MQD0, stabilised); experiment: ELISA; conditions: both partners purified
# [4] = biological target: T1, prefusion-stabilized HKU1 S ectodomain …; experiment: SPR; S2P6 Fab fragment and S glycoproteins (fig. S1, G and H); conditions: both partners purified
Binder,binding result [1],"neutralization of VSV pseudotyped with OC43 S, IC50 [2]",binding result [3],Kd [4]
B1,binds,1.3 µg/mL,binds,–
B2,–,–,–,~120 nM
